Target: mesothelin (UniProt Q13421)
Test: cell-based or functional assay

Sequence of UniProt Q13421 (Q13421 other isoform, or with tags, fused parts or gaps limits assumed): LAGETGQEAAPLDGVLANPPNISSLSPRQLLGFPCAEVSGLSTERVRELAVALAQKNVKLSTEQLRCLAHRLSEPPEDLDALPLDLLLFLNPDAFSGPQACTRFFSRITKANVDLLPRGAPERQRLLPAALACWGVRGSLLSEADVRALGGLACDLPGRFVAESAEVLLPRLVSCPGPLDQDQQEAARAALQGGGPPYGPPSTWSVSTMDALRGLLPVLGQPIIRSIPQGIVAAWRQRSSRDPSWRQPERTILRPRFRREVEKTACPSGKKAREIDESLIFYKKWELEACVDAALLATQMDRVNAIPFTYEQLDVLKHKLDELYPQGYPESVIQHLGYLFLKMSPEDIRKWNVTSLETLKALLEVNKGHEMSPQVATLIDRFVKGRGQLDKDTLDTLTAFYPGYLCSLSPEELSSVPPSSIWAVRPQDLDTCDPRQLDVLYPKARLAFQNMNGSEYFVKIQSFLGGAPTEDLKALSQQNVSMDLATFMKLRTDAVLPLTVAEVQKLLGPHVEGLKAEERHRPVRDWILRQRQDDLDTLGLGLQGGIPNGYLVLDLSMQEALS

Substance “SS1(dsFv)-PE38 (from UniProt P11439 278-389; P11439 406-638)” has an IC50 (NG/ML), cytotoxic activity on A431-K5 cells of 0.63 ng/mL.

Source: patent US7521054
